Assay results: paper PMC2741639 (Microbiological research, 2008)

Biological target: the molecule itself
Assay: native gel or EMSA

B1: His-tagged Sbm (enzyme, E. coli, UniProt P27253 1-714, looked up)
chain: MSNVQEWQQLANKELSRREKTVDSLVHQTAEGIAIKPLYTEADLDNLEVTGTLPGLPPYVRGPRATMYTAQPWTIRQYAGFSTAKESNAFYRRNLAAGQKGLSVAFDLATHRGYDSDNPRVAGDVGKAGVAIDTVEDMKVLFDQIPLDKMSVSMTMNGAVLPVLAFYIVAAEEQGVTPDKLTGTIQNDILKEYLCRNTYIYPPKPSMRIIADIIAWCSGNMPRFNTISISGYHMGEAGANCVQQVAFTLADGIEYIKAAISAGLKIDDFAPRLSFFFGIGMDLFMNVAMLRAARYLWSEAVSGFGAQDPKSLALRTHCQTSGWSLTEQDPYNNVIRTTIEALAATLGGTQSLHTNAFDEALGLPTDFSARIARNTQIIIQEESELCRTVDPLAGSYYIESLTDQIVKQARAIIQQIDEAGGMAKAIEAGLPKRMIEEASAREQSLIDQGKRVIVGVNKYKLDHEDETDVLEIDNVMVRNEQIASLERIRATRDDAAVTAALNALTHAAQHNENLLAAAVNAARVRATLGEISDALEVAFDRYLVPSQCVTGVIAQSYHQSEKSASEFDAIVAQTEQFLADNGRRPRILIAKMGQDGHDRGAKVIASAYSDLGFDVDLSPMFSTPEEIARLAVENDVHVVGASSLAAGHKTLIPELVEALKKWGREDICVVAGGVIPPQDYAFLQERGVAAIYGPGTPMLDSVRDVLNLISQHHD
- stoichiometry N: 2
